{
  "source": "the FLAb antibody collection",
  "proteins": {"B1": {"name": "unnamed (protein)", "chain 1": "QVQLVESGGGVVQPGRSLRLSCAASGFTFSSYDMSWVRQAPGKGLEWVAKVSSGGGSTYYLDTVQGRFTISRDNSKNTLYLQMNSLRAEDTAVYYCARHLHGSFASWGQGTTVTVSS", "chain 2": "EIVLTQSPATLSLSPGERATLSCQASQSISNFLHWYQQRPGQAPRLLIRYRSQSISGIPARFSGSGSGTDFTLTISSLEPEDFAVYYCQQSGSWPLTFGGGTKVEIK"}, "B2": {"name": "unnamed (protein)", "chain 1": "QVQLVQSGAEVKKPGSSVKVSCKASGGTFSYYWIEWVRQAPGQGLEWMGEILPGSGTTNPNEKFKGRVTITADESTSTAYMELSSLRSEDTAVYYCARADYYGSDYVKFDYWGQGTLVTVSS", "chain 2": "DIQMTQSPSSLSASVGDRVTITCKASQHVITHVTWYQQKPGKAPKLLIYGTSYSYSGVPSRFSGSGSGTDFTLTISSLQPEDFATYYCQQFYEYPLTFGGGTKVEIK"}, "B3": {"name": "unnamed (protein)", "chain 1": "EVQLVESGGGLVQPGGSLRLSCAASGFTFSSYNMNWVRQAPGKGLEWVSYISSSSSTIYYADSVKGRFTISRDNAKNSLSLQMNSLRDEDTAVYYCARAYYYGMDVWGQGTTVTVSS", "chain 2": "DIQMTQSPSSVSASVGDRVTITCRASQGISGWLAWYQQKPGKAPKFLIYAASTLQSGVPSRFSGSGSGTDFTLTISSLQPEDFATYYCQQANSFPPTFGGGTKVEIK"}, "B4": {"name": "unnamed (protein)", "chain 1": "EVQLVESGGGLVQPGGSLRLSCAASGYSFTGHWMNWVRQAPGKGLEWVGMIHPSDSETRYNQKFKDRFTISVDKSKNTLYLQMNSLRAEDTAVYYCARGIYFYGTTYFDYWGQGTLVTVSS", "chain 2": "DIQMTQSPSSLSASVGDRVTITCRASKTISKYLAWYQQKPGKAPKLLIYSGSTLQSGVPSRFSGSGSGTDFTLTISSLQPEDFATYYCQQHNEYPLTFGQGTKVEIK"}, "B5": {"name": "unnamed (protein)", "chain 1": "EVQLVQSGAEVKKPGASVKVSCKASGYTLTSYGISWVRQAPGQGLEWMGWVSFYNGNTNYAQKLQGRGTMTTDPSTSTAYMELRSLRSDDTAVYYCARGYGMDVWGQGTTVTVSS", "chain 2": "ESALTQPASVSGSPGQSITISCTGTSSDVGGYNSVSWYQQHPGKAPKLMIYEVSNRPSGVSNRFSGSKSGNTASLTISGLQAEDEADYYCNSYTSTSMVFGGGTKLTVL"}, "B6": {"name": "unnamed (protein)", "chain 1": "QVQLVQSGAEVKKPGASVKVSCKASGYTFTSYDINWVRQATGQGLEWMGWMNPNSGNTGYAQKFQGRVTMTRNTSISTAYMELSSLRSEDTAVYYCARDPYYYYYGMDVWGQGTTVTVSS", "chain 2": "QSVLTQPPSVSAAPGQKVTISCSGSSSNIENNHVSWYQQLPGTAPKLLIYDNNKRPSGIPDRFSGSKSGTSATLGITGLQTGDEADYYCETWDTSLSAGRVFGGGTKLTVL"}, "B7": {"name": "unnamed (protein)", "chain 1": "EVQLVESGGGVVQPGRSLRLSCSASGFTFSGYGLSWVRQAPGKGLEWVAMISSGGSYTYYADSVKGRFAISRDNAKNTLFLQMDSLRPEDTGVYFCARHGDDPAWFAYWGQGTPVTVSS", "chain 2": "DIQLTQSPSSLSASVGDRVTITCSVSSSISSNNLHWYQQKPGKAPKPWIYGTSNLASGVPSRFSGSGSGTDYTFTISSLQPEDIATYYCQQWSSYPYMYTFGQGTKVEIK"}, "B8": {"name": "unnamed (protein)", "chain 1": "QVQLVQPGAEVKKPGTSVKLSCKASGYTFTTYWMHWVRQAPGQGLEWIGEINPTNGHTNYNQKFQGRATLTVDKSTSTAYMELSSLRSEDTAVYYCARNYVGSIFDYWGQGTLLTVSS", "chain 2": "DIVMTQSPDSLAMSLGERVTLNCKASENVVSYVSWYQQKPGQSPKLLIYGASNRESGVPDRFSGSGSATDFTLTISSVQAEDVADYHCGQSYNYPYTFGQGTKLEIK"}, "B9": {"name": "unnamed (protein)", "chain 1": "QVQLVQSGAEVKRPGASVKVSCKASGYTFTNDIIHWVRQAPGQRLEWMGWINAGYGNTQYSQNFQDRVSITRDTSASTAYMELISLRSEDTAVYYCAREPLWFGESSPHDYYGMDVWGQGTTVTVSS", "chain 2": "AIQLTQSPSSLSASVGDRVTITCRASQGISSALAWYQQKPGKAPKLLIYDASSLESGVPSRFSGSGSGTDFTLTISSLQPEDFATYYCQQFNSYPLTFGGGTKVEIK"}, "B10": {"name": "unnamed (protein)", "chain 1": "QVQLVQSGAEVKKPGASVKVSCKASGYIFSNYWIQWVRQAPGQGLEWMGEILPGSGSTEYTENFKDRVTMTRDTSTSTVYMELSSLRSEDTAVYYCARYFFGSSPNWYFDVWGQGTLVTVSS", "chain 2": "DIQMTQSPSSLSASVGDRVTITCGASENIYGALNWYQQKPGKAPKLLIYGATNLADGVPSRFSGSGSGTDFTLTISSLQPEDFATYYCQNVLNTPLTFGQGTKVEIK"}, "B11": {"name": "unnamed (protein)", "chain 1": "EVQLVESGGGLVQPGGSLRLSCAASGFTFSNYWISWVRQAPGKGLEWVAEIRSESDASATHYAEAVKGRFTISRDNAKNSLYLQMNSLRAEDTAVYYCLAYFDYGLAIQNYWGQGTLVTVSS", "chain 2": "EIVLTQSPATLSLSPGERATLSCKASKRVTTYVSWYQQKPGQAPRLLIYGASNRYLGIPARFSGSGSGTDFTLTISSLEPEDFAVYYCSQSYNYPYTFGQGTKLEIK"}, "B12": {"name": "unnamed (protein)", "chain 1": "QVQLVQSGAEVKKPGASVKVSCKASGYTFTDYYMHWVRQAPGQGLEWMGRVNPNRRGTTYNQKFEGRVTMTTDTSTSTAYMELRSLRSDDTAVYYCARANWLDYWGQGTTVTVSS", "chain 2": "DIQMTQSPSSLSASVGDRVTITCSVSSSVSSIYLHWYQQKPGKAPKLLIYSTSNLASGVPSRFSGSGSGTDFTLTISSLQPEDFATYYCQVYSGYPLTFGGGTKVEIK"}, "B13": {"name": "unnamed (protein)", "chain 1": "QVQLQQSGAELVRPGTSVKVSCKASGYAFTNYLIEWVKQRPGQGLEWIGVINPGSGGTNYNEKFKGKATLTADKSSSTAYMQLSSLTSDDSAVYFCARDGPWFAYWGQGTLVTVSA", "chain 2": "NIVMTQSPKSMSMSVGERVTLTCKASENVVTYVSWYQQKPEQSPKLLIYGASNRYTGVPDRFTGSGSATDFTLTISSVQAEDLADYHCGQGYSYPYTFGGGTKLEIK"}, "B14": {"name": "unnamed (protein)", "chain 1": "QVQLVESGGGVVQPGRSLRLSCAASGFTFSSFGMHWVRQAPGKGLEWVAVISFDGSIKYSVDSVKGRFTISRDNSKNTLFLQMNSLRAEDTAVYYCARDRLNYYDSSGYYHYKYYGMAVWGQGTTVTVSS", "chain 2": "QSVLTQPPSVSAAPGQKVTISCSGSSSNIGNNYVSWYQQLPGTAPKLLIYDNNKRPSGIPDRFSGSKSGTSTTLGITGLQTGDEADYYCGTWDSRLSAVVFGGGTKLTVL"}, "B15": {"name": "unnamed (protein)", "chain 1": "EVQLVESGGGLVQPGGSLRLSCAASGFFITNNYWGWVRQAPGKGLEWVGYISYSGSTSYNPSLKSRFTISRDTSKNTFYLQMNSLRAEDTAVYYCARTGSSGYFDFWGQGTLVTVSS", "chain 2": "DIQMTQSPSSLSASVGDRVTITCRASESVDDLLHWYQQKPGKAPKLLIKYASQSISGVPSRFSGSGSGTDFTLTISSLQPEDFATYYCQQGNSLPNTFGQGTKVEIK"}, "B16": {"name": "unnamed (protein)", "chain 1": "QVQLVQSGSELKKPGASVKVSCKASGYTFTDNNMDWVRQAPGQGLEWMGDINTRSGGSIYNEEFQDRVIMTVDKSTDTAYMELSSLRSEDTATYHCARRKSYGYYLDEWGEGTLVTVSS", "chain 2": "DIQMTQSPSSLSASVGDRVTITCKASRNIERQLAWYQQKPGQAPELLIYQASRKESGVPDRFSGSRYGTDFTLTISSLQPEDIATYYCQQYSDPPLTFGGGTKVEIK"}, "B17": {"name": "unnamed (protein)", "chain 1": "QVQLVQSGAELKKPGSSVKVSCKASGYIFTSSWINWVKQAPGQGLEWIGRIDPSDGEVHYNQDFKDKATLTVDKSTNTAYMELSSLRSEDTAVYYCARGFLPWFADWGQGTLVTVSS", "chain 2": "DIQMTQSPSTLSASVGDRVTITCKASENVDTYVSWYQQKPGKAPKLLIYGASNRYTGVPSRFSGSGSGTDFTLTISSLQPDDFATYYCGQSYNYPFTFGQGTKVEVK"}, "B18": {"name": "unnamed (protein)", "chain 1": "EVQLVESGGGLVQPGGSLRLSCAASGFDFSRYWMSWVRQAPGKGLEWIGEINPDSSTINYAPSLKDKFIISRDNAKNSLYLQMNSLRAEDTAVYYCARPDGNYWYFDVWGQGTLVTVSS", "chain 2": "DIQMTQSPSSLSASVGDRVTITCKASQDVGIAVAWYQQKPGKVPKLLIYWASTRHTGVPDRFSGSGSGTDFTLTISSLQPEDVATYYCQQYSSYPYTFGQGTKVEIK"}, "B19": {"name": "unnamed (protein)", "chain 1": "EVQLVESGGGLVQPGGSLRLSCAASGFTFSRYWMSWVRQAPGKGLEWVANIKQDGSEKYYVDSVKGRFTISRDNAKNSLYLQMNSLRAEDTAVYYCAREGGWFGELAFDYWGQGTLVTVSS", "chain 2": "EIVLTQSPGTLSLSPGERATLSCRASQRVSSSYLAWYQQKPGQAPRLLIYDASSRATGIPDRFSGSGSGTDFTLTISRLEPEDFAVYYCQQYGSLPWTFGQGTKVEIK"}},
  "data": [
    {"assay": "patients with anti-drug antibodies; higher = more immunogenic", "units": {"patients with anti-drug antibodies": "%"}, "values": [
      {"protein": "B1", "patients with anti-drug antibodies": 0},
      {"protein": "B2", "patients with anti-drug antibodies": 9},
      {"protein": "B3", "patients with anti-drug antibodies": 1},
      {"protein": "B4", "patients with anti-drug antibodies": 6.3},
      {"protein": "B5", "patients with anti-drug antibodies": 0.3},
      {"protein": "B6", "patients with anti-drug antibodies": 0},
      {"protein": "B7", "patients with anti-drug antibodies": 8.7},
      {"protein": "B8", "patients with anti-drug antibodies": 0},
      {"protein": "B9", "patients with anti-drug antibodies": 1.7},
      {"protein": "B10", "patients with anti-drug antibodies": 2},
      {"protein": "B11", "patients with anti-drug antibodies": 1.6},
      {"protein": "B12", "patients with anti-drug antibodies": 0},
      {"protein": "B13", "patients with anti-drug antibodies": 80},
      {"protein": "B14", "patients with anti-drug antibodies": 2.4},
      {"protein": "B15", "patients with anti-drug antibodies": 5},
      {"protein": "B16", "patients with anti-drug antibodies": 3.5},
      {"protein": "B17", "patients with anti-drug antibodies": 7.8},
      {"protein": "B18", "patients with anti-drug antibodies": 18.5},
      {"protein": "B19", "patients with anti-drug antibodies": 3.3}
    ]}
  ]
}
